The values below come from patent US20100047237A1.

Experiment [1] has as its target ALys amyloid fibrils extracted from human amyloidotic tissue (human) (UniProt P61626). Briefly: 125I-SAP binding to fibrils; ALys fibrils at 0.05 A280-A320 units/ml; mean of 2 replicates.
Experiment [2] shares this target. Briefly: 125I-SAP binding to fibrils; ALys fibrils at 0.2 A280-A320 units/ml; mean of 2 replicates.
The target is the same in experiment [3]. Briefly: 125I-SAP binding to fibrils; ALys fibrils at 0.002 A280-A320 units/ml; mean of 2 replicates.
The target is the same in experiment [4]. Briefly: 125I-SAP binding to fibrils; ALys fibrils at 0.02 A280-A320 units/ml; mean of 2 replicates.

Regarding “human serum amyloid P component (SAP), 125I-labelled (from UniProt P02743 20-223)”, the % ^125I-SAP counts bound in experiment [1] is 72%; in experiment [2] it was 79%; in experiment [3] it was 7%; in experiment [4], 45%.
